The values that follow come from US20230057904A1 (Chugai, published 2023).

One assay concerns the target T1, human CLDN3 (human, UniProt O15551 1-220).
T1 construct: also called hCLDN3; hCLDN3/BaF
T1 sequence: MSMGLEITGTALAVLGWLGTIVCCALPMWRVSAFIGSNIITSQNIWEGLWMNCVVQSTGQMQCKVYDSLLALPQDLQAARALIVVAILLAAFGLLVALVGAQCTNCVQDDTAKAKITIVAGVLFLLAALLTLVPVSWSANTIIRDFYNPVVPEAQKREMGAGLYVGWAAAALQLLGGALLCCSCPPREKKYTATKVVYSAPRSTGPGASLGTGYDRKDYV
Briefly: flow cytometry, FreeStyle 293-F transfectants expressing human CLDN3, anti-human IgG Alexa Fluor 647; MFI. The method, then:
(§1) Antibodies were mixed with FreeStyle™ 293-F cells transiently expressed human and mouse CLDN3, 4, 6, and 9 at final concentration of 10 micro g/mL. After 1 hour of incubation, cells were washed by 0.1% BSA containing D-PBS(−), and incubated in 5 micro g/mL of either Goat anti-Human IgG (H+L) Cross-Adsorbed Secondary Antibody, Alexa Fluor 647 (Invitrogen, A21445) or Goat anti-Mouse IgG (H+L) Highly Cross-Adsorbed Secondary Antibody, Alexa Fluor 647 (Invitrogen, A21236), for 1 hour. Cells were then washed with 0.1% BSA containing D-PBS(−), resuspended in 5 micro L of 0.1% BSA containing D-PBS(−), and analyzed by flow cytometer (iQue Screener, intellicyte).
On the technique in general: Flow cytometry measures light scatter and fluorescence of single cells or particles in a stream.

Assay [1] has as its target T2, human CLDN4 (human, UniProt O14493 1-209).
T2 construct: also called hCLDN4; hCLDN4/BaF
T2 sequence: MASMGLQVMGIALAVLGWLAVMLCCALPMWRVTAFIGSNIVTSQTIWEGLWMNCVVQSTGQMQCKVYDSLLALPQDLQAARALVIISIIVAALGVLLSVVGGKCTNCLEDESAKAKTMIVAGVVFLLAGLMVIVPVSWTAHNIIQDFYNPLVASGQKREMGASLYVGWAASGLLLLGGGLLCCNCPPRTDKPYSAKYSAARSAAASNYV
Put plainly: flow cytometry, FreeStyle 293-F transfectants expressing human CLDN4, anti-human IgG Alexa Fluor 647; MFI.

A further assay addresses T3, mouse CLDN3 (mouse, UniProt Q9Z0G9 1-219).
T3 construct: also called mCLDN3; mCLDN3/FS293
T3 sequence: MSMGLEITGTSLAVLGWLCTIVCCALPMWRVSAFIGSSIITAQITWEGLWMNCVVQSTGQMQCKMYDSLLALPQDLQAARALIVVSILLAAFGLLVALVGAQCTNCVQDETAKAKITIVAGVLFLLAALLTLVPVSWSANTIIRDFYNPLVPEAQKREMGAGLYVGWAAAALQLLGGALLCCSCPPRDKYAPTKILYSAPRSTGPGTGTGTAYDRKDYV
Put plainly: flow cytometry, FreeStyle 293-F transfectants expressing mouse CLDN3, anti-human IgG Alexa Fluor 647; MFI. Here is the method:
as §1

The target in the next assay is T4, mouse CLDN4 (mouse, UniProt O35054 1-210).
T4 construct: also called mCLDN4; mCLDN4/FS293
T4 sequence: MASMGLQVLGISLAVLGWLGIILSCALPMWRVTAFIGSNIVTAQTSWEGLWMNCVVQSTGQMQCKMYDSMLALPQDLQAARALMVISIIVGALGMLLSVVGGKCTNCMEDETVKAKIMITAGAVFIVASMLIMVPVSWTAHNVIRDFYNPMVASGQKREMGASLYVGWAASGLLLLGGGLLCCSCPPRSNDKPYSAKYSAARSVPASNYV
Put plainly: flow cytometry, FreeStyle 293-F transfectants expressing mouse CLDN4, anti-human IgG Alexa Fluor 647; MFI. The method, then:
as §1

A further assay addresses T5, human CLDN9 (human, UniProt O95484 1-217).
T5 construct: also called hCLDN9; hCLDN9/BaF
T5 sequence: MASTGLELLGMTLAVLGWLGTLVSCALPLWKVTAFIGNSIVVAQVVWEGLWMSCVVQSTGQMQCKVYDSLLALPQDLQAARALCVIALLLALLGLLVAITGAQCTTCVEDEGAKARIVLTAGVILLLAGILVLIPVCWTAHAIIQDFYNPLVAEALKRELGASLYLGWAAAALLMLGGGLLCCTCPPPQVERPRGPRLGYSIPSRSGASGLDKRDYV
Briefly: flow cytometry, FreeStyle 293-F transfectants expressing human CLDN9, anti-human IgG Alexa Fluor 647; MFI. Here is the method: as §1

The target in another assay is T6, mouse CLDN9 (mouse, UniProt Q9Z0S7 1-217).
T6 construct: also called mCLDN9; mCLDN9/FS293
T6 sequence: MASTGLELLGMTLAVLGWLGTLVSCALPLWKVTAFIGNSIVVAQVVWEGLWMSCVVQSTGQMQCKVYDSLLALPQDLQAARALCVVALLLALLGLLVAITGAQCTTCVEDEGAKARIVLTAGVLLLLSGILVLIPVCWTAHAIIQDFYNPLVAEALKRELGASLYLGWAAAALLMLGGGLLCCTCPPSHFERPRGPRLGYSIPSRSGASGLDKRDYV
Put plainly: flow cytometry, FreeStyle 293-F transfectants expressing mouse CLDN9, anti-human IgG Alexa Fluor 647; MFI. The method, then: as §1

The target in the next assay is T7, mouse CLDN6 (mouse, UniProt Q9Z262 1-219).
T7 construct: also called mCLDN6; mCLDN6/FS293
T7 chain: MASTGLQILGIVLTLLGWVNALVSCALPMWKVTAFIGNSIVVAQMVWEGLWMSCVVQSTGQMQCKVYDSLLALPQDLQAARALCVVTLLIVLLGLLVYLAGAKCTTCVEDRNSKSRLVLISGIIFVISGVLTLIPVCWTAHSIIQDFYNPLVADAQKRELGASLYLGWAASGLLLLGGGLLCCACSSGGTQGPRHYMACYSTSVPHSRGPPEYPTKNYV
Briefly: flow cytometry, FreeStyle 293-F transfectants expressing mouse CLDN6, 10 micro g/mL antibody, anti-human IgG Alexa Fluor 647; MFI. The method, then:
as §1

Assay [2] addresses T2, human CLDN4. Briefly: flow cytometry on hCLDN4/BaF (Ba/F3 transfectant), Alexa Fluor 488 anti-human IgG; histogram against KLH/TR01. Here is the method: Amino acid sequence are highly conserved among CLDN3, CLDN4, CLDN6 and CLDN9. Thus we examined CLDN6 binding specificity by FACS analysis. hCLDN6/BaF, hCLDN3/BaF, hCLDN4/BaF, and hCLDN9/BaF were incubated with CS2201, CS2961, AH05/TR01 and 6PHU3/TR01 at 15 micro g/ml. KLH/TR01 generated in Example 2-3 was used as a staining control. Binding of each antibody was detected with Alexa Fluor 488-conjugated anti human IgG (Invitrogen). Dead cells were separated by eFlour 780 (Invitrogen) staining.

B1: CDA0013/TR01 (bispecific antibody, V domains shown)
VH 1: QSLEESGGRLVTPGTPLTLTCTVSGIDLNNYGVGWVRQPPGKGLEWIGYINALGSAYYASWAKGRFTISRTSTTVDLKITSPTTEDTATYFCARVRYLYIGGGGYWIDRLDLWGQGTLVTVSS
VL 1: DVVMTQTPASVEAAVGDTVTIKCQASQSISSCLSWYQQKPGQPPKLLIYYASTLASGVPSRFSGSGSGTEFTLTISGLQCDDAATYYCLGVVSYVSADGGFGGGTEVVVK
VH 2: QVQLVESGGGVVQPGGSLRLSCAASGFTFSNAWMHWVRQAPGKGLEWVAQIKDKSQNYATYVAESVKGRFTISRADSKNSIYLQMNSLKTEDTAVYYCRYVHYAAGYGVDIWGQGTTVTVSS
VL 2: DIVMTQSPLSLPVTPGEPASISCRSSQPLVHSNRNTYLHWYQQKPGQAPRLLIYKVSNRFSGVPDRFSGSGSGTDFTLKISRVEAEDVGVYYCGQGTQVPYTFGQGTKLEIK
notes: CDA0013 is rabbit-derived; IgG format by Fab arm exchange, silent Fc; also called anti-CLDN6/CD3 bispecific antibody CDA0013/TR01
Turning to B1, the binding result in the assay with human CLDN3, with human CLDN4 [1], in the assay with mouse CLDN3, with mouse CLDN4, with human CLDN9 and with mouse CLDN9 was “no binding (tested: 10 micro g/mL)” in each case. The binding result in the assay with mouse CLDN6 is given as “binds”.

B2: 6PHU3/TR01 (bispecific antibody, V domains shown)
VH 1: EVQLQQSGPELVKPGASMKISCKASGYSFTGYTMNWVKQSHGKNLEWIGLINPYNGGTIYNQKFKGKATLTVDKSSSTAYMELLSLTSEDSAVYYCARDYGFVLDYWGQGTTLTVSS
VL 1: DIVLTQSPSIMSVSPGEKVTITCSASSSVSYMHWFQQKPGTSPKLCIYSTSNLASGVPARFSGRGSGTSYSLTISRVAAEDAATYYCQQRSNYPPWTFGGGTKLEIK
VH 2: QVQLVESGGGVVQPGGSLRLSCAASGFTFSNAWMHWVRQAPGKGLEWVAQIKDKSQNYATYVAESVKGRFTISRADSKNSIYLQMNSLKTEDTAVYYCRYVHYAAGYGVDIWGQGTTVTVSS
VL 2: DIVMTQSPLSLPVTPGEPASISCRSSQPLVHSNRNTYLHWYQQKPGQAPRLLIYKVSNRFSGVPDRFSGSGSGTDFTLKISRVEAEDVGVYYCGQGTQVPYTFGQGTKLEIK
notes: IgG format by Fab arm exchange, silent Fc; also called anti-CLDN6/CD3 bispecific antibody 6PHU3/TR01
Turning to B2, the binding result in the assay with human CLDN3 was “no binding (tested: 10 micro g/mL)”; in the assay with mouse CLDN3 it was “no binding (tested: 10 micro g/mL)”; in the assay with mouse CLDN4, “no binding (tested: 10 micro g/mL)”; with human CLDN4 [2] it was “no binding (tested: 15 micro g/ml)”; with mouse CLDN6 it was “binds”.
